The target in data set [1] is GFP-MTase (M.EcoKI DNA methyltransferase, M2S1 form, with enhanced green fluorescent protein fused to the C-terminus of HsdS) (E. coli) (UniProt P08957). The experiment in a line: SEC; labelled mutant ocr proteins with GFP-MTase, size exclusion chromatography as previously described [14]; 20 or 25 °C, 20 mM Tris-HCl pH 8.0, 6 mM MgCl2, 7 mM 2-mercaptoethanol. (In general: SEC sorts molecules by how far they enter the pores of the column.)

Data set [2] has as its target T1, GFP-MTase (M.EcoKI DNA methyltransferase, M2S1 form, with enhanced green fluorescent protein fused to the … (E. coli, UniProt P08957 1-529; P05719 1-464).
T1 construct: HsdM modification (MTase) subunit of the Type I R/M enzyme EcoKI, E. coli; its C-terminus is fused to the N-terminus of EGFP; Construct pJFMSEGFP derives from pJFMS [18] and pEGFP-N1; EGFP serves as the FRET donor; also called M.EcoKI fused to GFP; fusion protein; not shown: EGFP, C-terminal, kept; copies: 2 + 1
T1 sequence (looked up) 1: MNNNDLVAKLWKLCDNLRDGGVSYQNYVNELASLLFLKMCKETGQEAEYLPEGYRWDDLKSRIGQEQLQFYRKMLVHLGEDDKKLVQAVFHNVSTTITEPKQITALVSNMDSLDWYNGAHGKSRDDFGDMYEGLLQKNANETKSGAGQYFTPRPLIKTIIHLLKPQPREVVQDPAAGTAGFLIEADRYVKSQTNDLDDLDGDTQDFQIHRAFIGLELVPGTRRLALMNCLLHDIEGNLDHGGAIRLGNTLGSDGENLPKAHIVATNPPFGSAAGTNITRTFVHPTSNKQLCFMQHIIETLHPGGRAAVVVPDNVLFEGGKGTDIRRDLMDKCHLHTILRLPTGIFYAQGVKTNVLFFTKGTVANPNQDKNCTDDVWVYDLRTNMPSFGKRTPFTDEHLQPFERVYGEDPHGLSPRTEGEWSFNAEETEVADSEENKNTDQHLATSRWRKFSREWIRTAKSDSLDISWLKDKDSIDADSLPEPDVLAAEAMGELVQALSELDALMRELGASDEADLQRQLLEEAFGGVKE
T1 sequence (looked up) 2: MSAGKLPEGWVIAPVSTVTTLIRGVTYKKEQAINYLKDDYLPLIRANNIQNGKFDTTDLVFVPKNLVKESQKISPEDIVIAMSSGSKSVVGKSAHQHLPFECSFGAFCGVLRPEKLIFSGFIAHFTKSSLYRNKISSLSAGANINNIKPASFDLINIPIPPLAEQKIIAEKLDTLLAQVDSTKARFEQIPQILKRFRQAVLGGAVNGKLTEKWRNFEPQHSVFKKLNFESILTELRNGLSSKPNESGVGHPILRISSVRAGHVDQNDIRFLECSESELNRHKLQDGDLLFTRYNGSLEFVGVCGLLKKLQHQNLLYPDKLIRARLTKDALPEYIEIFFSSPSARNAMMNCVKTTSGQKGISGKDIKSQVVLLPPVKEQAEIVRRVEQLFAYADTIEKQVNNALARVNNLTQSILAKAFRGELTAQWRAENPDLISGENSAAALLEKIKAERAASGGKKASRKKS
The description is as above. Conditions: both partners purified.

The target in data set [3] is T2, GFP-MTase (M.EcoKI M2S1 with EGFP fused to C-terminus of HsdS) (Escherichia coli? (EcoKI; expressed in …, UniProt P08957;P05719 1-529;1-464).
T2 sequence 1: T1 sequence (looked up) 1
T2 sequence 2: T1 sequence (looked up) 2
Nature of the data set: FRET continuous variation titration; no NaCl; 6 mM Mg2+; 1:1 complex; 20 mM Tris-HCl pH 8.0, 6 mM MgCl2, 7 mM 2-mercaptoethanol, NaCl 0-100 mM (0 for the Kd), 20 or 25 °C. The settings on record: protein: recombinant; tags: EGFP-His6 at C-terminus of HsdS; chain copies: 2;1; label: 5'-HEX on top strand; blunt.

One may read the stoichiometry N as a count of units in the complex or per binding partner. Consider “Dylight549-labelled ocr E20C mutant protein (from UniProt P03775 1-117) (natural protein)”, for which the stoichiometry N in data set [1] was found to be 1.

With “Dylight549-labelled ocr S68C mutant protein (from UniProt P03775 1-117) (natural protein)”, the stoichiometry N in data set [1] came to 1.

B1: Dylight549-labelled ocr E117C mutant protein (natural protein, phage T7, UniProt P03775 1-117, looked up)
chain: MAMSNMTYNNVFDHAYEMLKENIRYDDIRDTDDLHDAIHMAADNAVPHYYADIFSVMASEGIDLEFEDSGLMPDTKDVIRILQARIYEQLTIDLWEDAEDLLNEYLEEVEEYEEDEC
modifications: Dylight549 maleimide on the introduced cysteine at 117 (labelling level 86.3%)
notes: gene 0.3 protein, ocr, from phage T7; one cysteine and so one acceptor label in each subunit; also called E117C ocr; E117E (as printed once); source: site directed mutagenesis and protein purification as described previously [17]
In the case of B1, the “stoichiometry N” value in data set [2] worked out at 1.

B2: 21TH21B (dsDNA)
DNA 1: GCCTAACCACGTGGTGCGTAC
DNA 2: GTACGCACCACGTGGTTAGGC
What is called Kd is the constant that tells how readily two partners part at equilibrium. B2: the Kd in data set [3] is 19 ± 7 nM.

Source of the values: PMC2914225, “Fusion of GFP to the M.EcoKI DNA methyltransferase produces a new probe of Type I DNA restriction and modification enzymes” (Biochemical and Biophysical Research Communications, 2010).
